From the DeepSol protein solubility set

Assay: soluble on expression in E. coli; label from the status in PepcDB or PDB records

Sequence | soluble on expression in E. coli
MSLSQPRYLSESKVAIKQSSDINGSNLNVGLLLGTGNPSSAEDALYLKEYISSPDMLGVLDKQLNFRQAFGQSGWDFFYHLSEGATREQFLNYYRDRISVVYDDKTGLLTLGTQGFSPEFAEAFNQAVLKESEKFINEISHRIAREQLQFAEDEMQAARVRLNRSKTELLTYQNSNNVLDPEAQALAATSLVNTLVSQRIQMEAELRNLLTYLRDDAPQVISAQNALKSLSTQIDNEKNKITAPDGHKLNRMAVDFEEIKAKVQFDGEIYKLTLTSIEKTRVDAARKLKVLSVISSPQLPEESAFPNREGHHHHHH | soluble
MGSDKIHHHHHHVQDKNFDKLAQKFAKNIYGTPKGDIRAAVLWRDLAPALAKLGDRKLRVLDAGGGFGYFSQKLARLGHEVVLCDISAEMLAQAQEQIDASPEPLAIQLIHAPIQALSVEQHGYFDIILCHAVVEWLTDAKPTMAGLLTMLKPAGLFSLMFYNKEAMRFHALVSGNFDYVAADLKVKKKVQLTPTHPLYIQEVKEWFSDWQMSLISQSGVRVIHDYLKKSQPVDFDYQKLLQMELEYSQREPYISLGRYVHFLGQSPAV | not soluble
MGSDKIHHHHHHMSREINAGGHHFLYGGISRGVHYWDNKDFSEQSLRLSFGHQNRSVTRSFGTVPFVGQNLLGGSRYNFAGGFNADFSRRLGERWRLTLNAGNMWKHYQEDRTAARYGSHMPLAGATLMYSAPKDRLLYGGADWPHDMTKEAEQASVRKGLRVGAVKTFDGGLGLRANLRYTRRTFDAPGTIVYRFPRKDHEYQANLSLRHDKISWKGFTPQLNFRYLKIGSNMKSFYTRKNTQIFMSVEKDFK | not soluble
MSLSSGRTVPTRSHGLGKEGVSTTGASQVEFGDPELTARINDAMVQVEELLHTELSSGEDFLVDIVMHLTRAGGKRFRPMFALLASEFGEKPLSENVIKAAVVVEITHLATLYHDDVMDEASMRRGVPSANARWDNSVAILAGDILLAHASGLMSQLGTDTVAHFAETFGELVTGQMRETVGPRDTDPIEHYTNVIREKTGVLIASAGYLGAMHAGAAPEHIDALKNFGAAVGMIFQIVDDIIDIFSETHESGKTPGTDLREGVFTLPVLYALREDTPVGAELRDILTGPLEDDETVNHVLELLSQSGGRQAALDEVYRYMDIANAELDRLPDSTVKEALRNLATFTVKRVGEGHHHHHH | soluble
MSLTHGDVMLLATSFAPGSSNIIYQVIDELVNYFKKFLFTVNYDSELTTIADCFDLLNIPKDHPSRNLTDTFYLDKNRLLRTHCTAATLRAVKETKKSNNPDIRIASFGAVFRKDDDDATHSHQFNQLDFMWIKKDFSLTNLKWFMQNMINHIFGENTSARFRLSHFPFTEPSFEIDIRCWLCQNGCGVCKKTRWIEVLGAGILHPQVMANMGFSDTDNIRGIAAGIGIERLVMLKHGISDIRDLYDNNFKFLAQFTEGHHHHHH | not soluble
MSLKYAWIDEQCRHYPLSALCEVLAVSINGYRAWKRGGTVQRKRLTDAQLLTLIRTIHAEVKGAYGSPRMTEEIRARGFPASKARVERLMSKNGIRARHKRRYRVTTDSKHKLPVAPNLLNRDFTPDAPNQVFSSDITYIWTDEGWLYLAVVLDLFNREVVGWSIKPRMTADLVTDALMMAWFRRKPAPGALHHSDRGSQYASHEFQRKLADYGMHCSMSRKGNCWDNAPTESFFNSLKNERVHATHYRTHREAAADLFEYIEVFYSRSRRHSSLGFVPPTQFLQDWLTAQQVKDAVAEGHHHHHH | not soluble
MSLSLSLEVLERLVAFETVSDRPNLDMIAYVEDFLRTRGFRVHRIADPEEAKAGLFAEIGPSVDGGLLLSAHSDVVPVEGQSWCVPPFKLTRQGDKLYGRGTTDMKGFLAEMLALADVVHRRDLHAPLKLLISYDEEIGCVGISRMKDRLRPLLGRPELAIVGEPTEMQVAISHKGKRSYRADFRGEAGHSALAPRFVNALHLAVDFVTKLRQMQDEFRQDGNFNGDYDVPYTTLHVGQLHGGEALNLVPDKATLLFEFRHLAEDDPEVIEARIQQAADAVKGNYADVAHISLDALAGYPGLSVAVSEPLVSRVRSWCDGNISHVAFGTEAGVLSELGIQTVVCGPGSMAEQGHKPDEFISEHQLAACSNMLRKGAEEMLYCAEGHHHHHH | soluble
MTVSPVPSPKGRVLIAGATGFIGQFVATASLDAHRPTYILARPGPRSPSKAKIFKALEDKGAIIVYGLINEQEAMEKILKEHEIDIVVSTVGGESILDQIALVKAMKAVGTIKRFLPSEFGHDVNRADPVEPGLNMYREKRRVRQLVEESGIPFTYICCNSIASWPYYNNIHPSEVLPPTDFFQIYGDGNVKAYFVAGTDIGKFTMKTVDDVRTLNKSVHFRPSCNCLNINELASVWEKKIGRTLPRVTVTEDDLLAAAGENIIPQSVVAAFTHDIFIKGCQVNFSIDGPEDVEVTTLYPEDSFRTVEECFGEYIVKMEEKQPTADSAIANTGPVVGMRQVTATCA | soluble
MSLNSQEMVLGNAWLVLADRVIEHGWVAIADGVIAEVGEGDAPNGAKDMHGDLVMPGLVELHTDHLEAHYTPRPKVQWNPVAAVVSYDGQLATCGITTVLDSLRVWREEGAEEVDGQAIVLAGAISTARDAQLLRADHFLHLRCEIPMPNVVAEAKELIDRPDIRLMSLMDHTPGQRQFRDEEKLRDYYRGKGAGMTDAELDVMFARRVYCKENYADANMRAIVELAHRYEIPLASHDDTTPENVADAIRDRVAVAEFPTTLEAARELHQAGIDILMGAPNVVRGGSHSGNIAAIDLAHEGLLDILSSDYIPSSLLIAALQLPMRAPGIDLAAAIRTVTKAPAEAVGLNDRGEISKGKRADLIRVHVAHDVPAVRSVWREGQRVAEGHHHHHH | not soluble
SMATKIDKEACRAAYNLVRDDGSAVIWVTFKYDGSTIVPGEQGAEYQHFIQQCTDDVRLFAFVRFTTGDAMSKRSKFALITWIGENVSGLQRAKTGTDKTLVKEVVQNFAKEFVISDRKELEEDFIKSELKKAGGANYDAQTE | soluble
MEEKKALRNRIKKLLRSQPEQQRKEGSQRVADILFSLPEWNEAHAIGITISLPHEVQTELIISRGWEEGKQIAVPRVKKGTTQMTFYEIHSFSVLEDTFFGLREPKPSECRQIDGQELDLLLVPGVAFDQKGNRLGYGGGYYDRFLHSYKGKTIALAYSQQLVESVPTDERDERVQMIVTERGVYRLEHHHHHH | soluble
MSLKNNEVAFYAMGGLGEIGKNMYCVQFQDEIIVIDCGVLFPEDELLGVDYVIQNYDYLIENKDKIKGIFITHGHEDHIGGLPFFLQKVNAPIYAGPFAMSLIKGKLEEKHLLRNAELHEINEFDEVHFKKLWVSFFRTTHSIPDTLGVAVHTPQGTIVQTGDFKFDLTPVGNLPGPNLQQMAKLGDDGVLLLTSDSTNAERPEFTKSERWVDIHIRRIFERIKGRIIFASFASNVYRLREASDAAIAQGRKIAVFGRSMENAITAGQELGYLNIPKDSLIDQNEINNYPPEKVLIMCTGSQGEPMAALSRIANGTHRQITIQPEDTVVFSSNPIPGNTTSVNALINKLEESGANVIHGYVNNIHTSGHGGQVDEEFMLRLMKPKFFAPVHGEYRMQKIHTKLAEMTGVPKENSFVLANGDVLALTKDSCRVADHIDSVSDVYIDGRDAGDTVGNPEIRERRLLSEEGVVTAIAVVDLKDYQIVAGPDIVSRGFVYMHESQELIKAANHEVFWAILNTFKNHKHIDQRVLNRTIISRLQKLLYDRTGRRPVIIPMVTILNGEGHHHHHH | soluble
MSKKFNGKVCLVTGAGGNIGLATALRLAEEGTAIALLDMNREALEKAEASVREKGVEARSYVCDVTSEEAVIGTVDSVVRDFGKIDFLFNNAGYQGAFAPVQDYPSDDFARVLTINVTGAFHVLKAVSRQMITQNYGRIVNTASMAGVKGPPNMAAYGTSKGAIIALTETAALDLAPYNIRVNAISPGYMGPGFMWERQVELQAKVGSQYFSTDPKVVAQQMIGSVPMRRYGDINEIPGVVAFLLGDDSSFMTGVNLPIAGG | soluble
AHHHHHHGSKTLKVYIPGIKFPSISVTGNYCALNCAHCGRHYLEGMKKITRLNLVDKCVEMEKEGYVGCLLSGGMDSRLKVPLDKFKDEIREIKEKTRLKINAHVGFIDEDDLEWLKYIDVVSLDFVGDNEVIKRVYKIDKTVNDYLKILDILTKERIKVAPHITIGLDFGRIHWEYEAIDLLSEYPIDVLVLNILIPTPGTEMENVKVSMEEALNVVRYAREEFKGELSIGCMRPFGRWREEFDKRAILIGVDRITNPPRKVIEWAKQFRKVEIHFECCVI | not soluble
MTSVTSSATSSPEPPTKVAAAMQTTTGETSISNETSFNASRETSLTALGFLDYLDEEQRAALLGEGLDISTLTWANQVTALRVLESLFNEHAYELVSAVIQHVAQEPGDNPHHFLKFSPEPSTENSWELTLDGPTVGLKVTFDPDGQITFKDAHLGLSPAEVVSVTEALDTSYSESQIKKAAEQLVGSLNPTQQAALQGSGLRGAQLTEEQKTLFLKMTSNWIDLANGDSGSEQQEEIADTFSDTYIIWNEQKDGSAFFQMKGPELDFSYKESVPENAELSARGVPNIQTSFQSPLEHHHHHH | soluble
MIIMYAIGIGDNKEEVLKAYEKLKEEGIEVELIDNPKLLVDKLLDGEIDGAVRGSLSSSKVILYLRERIGKFYRASILKNPFTNGIFLLSPVGIDDISEDKNERIKDKIRIIEFASNFLKNYNIKAKVAVLSGGRLGDLGRNKVVDETIYEAEEIVEHFKGNVDIIHNGILIEEYLKDGYNIIIAVDGITGNLIFRCLGLICKIPGYGAVILSDKNVNFIDTSRNANWERYYNAIKFLIGGDFG | soluble
MRNKPFYLLCAFLWLAVSHALAADSTITIRGYVRDNGCSVAAESTNFTVDLMENAAKQFNNIGATTPVVPFRILLSPCGNAVSAVKVGFTGVADSHNANLLALENTVSAASGLGIQLLNEQQNQIPLNAPSSAISWTTLTPGKPNTLNFYARLMATQVPVTAGHINATATFTLEYQ | not soluble
MSHRKALLIHNGNAANKNIEKALGAVVPVLSHHLDEVIIKQTKKKDHAYHFCRSIDDSVDTVFILGGDGTIHQCINAISALERKPAVGILPGGTSNDFSRVLGIPQNLAKAAEALMAGKKTSVDVCQMNDRYFLNFWGIGLIAETSNQINETEKALLGKISYFTSALRTVSSAASFPMTLKIDGEEIKEEAVMLLVMNGQYIGTNRIPLPDASIEDGLLDVLICRNTNLTALRELMSMEQGSIDRFTGELSYVQASRIEIETDTAKKADMDGEVYTHTPAVIQVLPQHIDMLVPANE | soluble
GPGSMISLDAYVRYVYQYSSPTTTEHLRQTVWGPLGLCSGASASPKPISGAQPCWRDASVSHEVLYAVPPITTNVRCVGSRIDAHLTDLLEALPLSSPTVPPTTPAAATLASRFARPSRLATIGLPFCLCVKPQTEHLTPWSLLCTSSSSPTDASNPEMNRKQPSRPLVLVVDTGAAEAVLRGSDLYAPGIVTASRPFHAGERAVVAFYVERVAGTGDEAQNGSAEAPCRLVCALPTGATLSAEQFEPLDMDVDYQDKHQQVDMLAGRSTFLVCIGSGVTCMEWKTVMSRSVHGTALRMEWTPQGQPSRATLRALLGITKGTEDSNARSSTPLPQPPSSGVEEGEERAADVFFLQNYSSMVPVALLVQHLSPAALRRAWTHSDDADQGRSPVPCTILDACAAPGGKTSLLLSLLQERAEQERTAMAEAAIPLPSATVATEPFRVVCCERSRPRQEQLMSLLHRHFASHLAAPSASPSLNSTPAVDVPYVTRVLESRCVDTNKFLKRKLTEAAGSSDGSAASHTASFDAVLLDPPCTGMGLRPKLMPHVQSIASIQRSADYQRKLFDSCIRHIRGSPTSPGVIVYSTCTTTLEENEANVLHFLCTYPSVRLARARTAAQRALCGLSTVRSYGAQHDTDGSHGSTCLCSCLLRNEITEVQLAKERAAAAEGLSSTDPLLLLRFMPRPLDIYDDISEDGVGFFVAVFLCSGYTDA | not soluble
